Biological target: human VEGF165 protein (human)
Test: ELISA; plates coated with recombinant human PD-L1 or VEGF165 (100 ng/well, carbonate buffer); antibody 1 h at room temperature; detected with HRP goat anti-human Fc, TMB, 450 nm

- EC50: 480 pM
B1: HB0025 (anti-PD-L1/VEGFR1D2-Ig fusion protein) (bispecific antibody, V domains shown)
VH: QVQLVQSGAEVKKPGASVKVSCKASGYAFTGYTIHWVRQAPGQRLEWMGWFYPGSGTLKYSEKFQGRVTITRDKSLSTAYMELSSLRSEDTAVYYCARHGTGTLMAMDYWGQGTLVTVSS
VL: DVVMTQTPLSLSVTPGQPASISCKSSQSLANSYGNTYLSWYLHKPGQSPQLLIYGISNRFSGVPDRFSGSGSGTDFTLKISRVEAEDVGVYYCLQGTHQPPTFGQGTKLEIK
